Assay results: publication PMC11470942 (Nature Communications, 2024)

Biological target: HPIV3 fusion protein (F), parental (Human parainfluenza virus 3, strain …, UniProt P06828)
Assay: immunostaining of cells or tissue

Sequence of HPIV3 fusion protein (F), parental (P06828 19-539): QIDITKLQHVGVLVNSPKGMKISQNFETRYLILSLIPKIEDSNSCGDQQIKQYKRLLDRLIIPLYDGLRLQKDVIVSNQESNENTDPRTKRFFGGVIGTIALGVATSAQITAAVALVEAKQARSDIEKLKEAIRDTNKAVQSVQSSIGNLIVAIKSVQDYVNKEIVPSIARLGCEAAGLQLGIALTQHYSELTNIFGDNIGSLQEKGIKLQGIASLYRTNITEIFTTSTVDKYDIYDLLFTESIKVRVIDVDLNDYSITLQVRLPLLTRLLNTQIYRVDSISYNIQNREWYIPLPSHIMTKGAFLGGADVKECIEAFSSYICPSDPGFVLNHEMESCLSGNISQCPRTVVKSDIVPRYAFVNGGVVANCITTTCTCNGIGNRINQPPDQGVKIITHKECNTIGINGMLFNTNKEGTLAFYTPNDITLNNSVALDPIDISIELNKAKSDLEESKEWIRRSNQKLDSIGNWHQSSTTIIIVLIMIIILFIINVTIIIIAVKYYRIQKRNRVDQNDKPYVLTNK

B1: PIA174 antibody fragment (Fab) (Fab, V domains shown)
VH: VQLQESGPGLVKPSETLSLTCTVSGGSVSSYYWSWIRQPPGKGLEWIGNIYYSGTTKYNPSLKSRVTISVDVSKNQFSLNLISVTAADTAVYFCARQVKSGWFVQPFDYWGQGALVTVSS
VL: QMTQSPPSLSAYVGDRVTITCRASQAIANYLAWFQQKPGKAPKSLIYAASTLQSGVPSRFSGSGSGTDFTLTISSLQPEDFATYYCHQYNTYPITFGQGTRLEIK
  binding result: binds
